Reference: the RNAGym collection of RNA variant scans (doi:10.1093/molbev/msab373)

B1: Azoarcus group I ribozyme (parent)
chain: GUGCCUUGCGCCGGGAAACCACGCAAGGGAUGGUGUCAAAUUCGGCGAAACCUAAGCGCCCGCCCGGGCGUAUGGCAACGCCGAGCCAAGCUUCGGCGCCUGCGCCGAUGAAGGUGUAGAGACUAGACGGCACCCACCUAAGGCAAACGCUAUGGUGAAGGCAUAGUCCAGGGAGUGGCGAAAGUCACACAAACCGG

Variants of: B1
Experiment: reverse-splicing fitness (ratio to wild type); higher = more active; in vitro selection; Mg2+ level not given
In short: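 An in vitro group I ribozyme library with randomized positions was T7-transcribed and gel-purified. In triplicate, 10 pmol RNA in EPPS pH 7.5 was reacted with 50 pmoles of a 30-nt RNA substrate for 1 h at 37 °C across several added MgCl2 levels (1–48 mM), then stopped with EDTA. Products were reverse transcribed from a substrate-complementary primer, PCR-amplified and sequenced (HiSeq 4000). Fitness is a variant's read proportion after selection over that before, normalised to wild type.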

Which reverse-splicing fitness does the source give for GUGCCUUGCGCCGGGAAACCACGCAAGGGAUGGUGUCAAAUUCGGCGAAACCUAAGCGCCCGCCCGGGCGUAUGGCAACGCCGAGCCAAGCUUCGGCGCCUGCGCCGAUGGAGGUGUAGUGACUAGACGGCACCCACCUAAGGCCAACGAUAUGGUGAAGGCAUAGUCGAGGGAGUGGCGAAAGUCACACAAACCGG [A111G A120U A145C C150A C169G] here?
The reverse-splicing fitness was 0.0049.

With GUGCCUUGCGCCGGGAAACCACGCAAGGGAUGGUGUCAAAUUCGGCGAAACCUAAGCGCCCGCCCGGGCGUAUGGCAACGCCGAGCCAAGCUUCGGCGCCUGCGCCGAUGGAGGUGUAGUGACUAGACGGCACCCACCUAAGGCCAACGAUAUGGUGAAGGCAUAGUCGAGGGAGAGGCGAAAGUCACACAAACCGG [A111G A120U A145C C150A C169G U176A] as the variant, how does the reverse-splicing fitness read?
Its reverse-splicing fitness is 0.00272.

For GUGCCUUGCGCCGGGAAACCACGCAAGGGAUGGUGUCAAAUUCGGCGAAACCUAAGCGCCCGCCCGGGCGUAUGGCAACGCCGAGCCAAGCUUCGGCGCCUGCGCCGAUGGAGGUGUAGUGACUAGACGGCACCCACCUAAGGCCAACGAUAUGGUGAAGGCAUAGUCGAGGGAGCGGCGAAAGUCACACAAACCGG [A111G A120U A145C C150A C169G U176C], which reverse-splicing fitness is on record?
The reverse-splicing fitness was 0.00181.

With GUGCCUUGCGCCGGGAAACCACGCAAGGGAUGGUGUCAAAUUCGGCGAAACCUAAGCGCCCGCCCGGGCGUAUGGCAACGCCGAGCCAAGCUUCGGCGCCUGCGCCGAUGGAGGUGUAGUGACUAGACGGCACCCACCUAAGGCCAACGAUAUGGUGAAGGCAUAGUCGAGGGAGGGGCGAAAGUCACACAAACCGG [A111G A120U A145C C150A C169G U176G] as the variant, how does the reverse-splicing fitness read?
The reverse-splicing fitness was 0.00195.

With GUGCCUUGCGCCGGGAAACCACGCAAGGGAUGGUGUCAAAUUCGGCGAAACCUAAGCGCCCGCCCGGGCGUAUGGCAACGCCGAGCCAAGCUUCGGCGCCUGCGCCGAUGGAGGUGUAGUGACUAGACGGCACCCACCUAAGGCCAACGAUAUGGUGAAGGCAUAGUCUAGGGAGUGGCGAAAGUCACACAAACCGG [A111G A120U A145C C150A C169U] as the variant, how does the reverse-splicing fitness read?
The reverse-splicing fitness was 0.00746.

Which reverse-splicing fitness does the source give for GUGCCUUGCGCCGGGAAACCACGCAAGGGAUGGUGUCAAAUUCGGCGAAACCUAAGCGCCCGCCCGGGCGUAUGGCAACGCCGAGCCAAGCUUCGGCGCCUGCGCCGAUGGAGGUGUAGUGACUAGACGGCACCCACCUAAGGCCAACGAUAUGGUGAAGGCAUAGUCUAGGGAGAGGCGAAAGUCACACAAACCGG [A111G A120U A145C C150A C169U U176A] here?
Its reverse-splicing fitness is 0.00311.

With GUGCCUUGCGCCGGGAAACCACGCAAGGGAUGGUGUCAAAUUCGGCGAAACCUAAGCGCCCGCCCGGGCGUAUGGCAACGCCGAGCCAAGCUUCGGCGCCUGCGCCGAUGGAGGUGUAGUGACUAGACGGCACCCACCUAAGGCCAACGAUAUGGUGAAGGCAUAGUCUAGGGAGCGGCGAAAGUCACACAAACCGG [A111G A120U A145C C150A C169U U176C] as the variant, how does the reverse-splicing fitness read?
The reverse-splicing fitness was 0.00268.

With GUGCCUUGCGCCGGGAAACCACGCAAGGGAUGGUGUCAAAUUCGGCGAAACCUAAGCGCCCGCCCGGGCGUAUGGCAACGCCGAGCCAAGCUUCGGCGCCUGCGCCGAUGGAGGUGUAGUGACUAGACGGCACCCACCUAAGGCCAACGAUAUGGUGAAGGCAUAGUCUAGGGAGGGGCGAAAGUCACACAAACCGG [A111G A120U A145C C150A C169U U176G] as the variant, how does the reverse-splicing fitness read?
Its reverse-splicing fitness is 0.00197.

For GUGCCUUGCGCCGGGAAACCACGCAAGGGAUGGUGUCAAAUUCGGCGAAACCUAAGCGCCCGCCCGGGCGUAUGGCAACGCCGAGCCAAGCUUCGGCGCCUGCGCCGAUGGAGGUGUAGUGACUAGACGGCACCCACCUAAGGCCAACGAUAUGGUGAAGGCAUAGUCCAGGGAGAGGCGAAAGUCACACAAACCGG [A111G A120U A145C C150A U176A], which reverse-splicing fitness is on record?
The reverse-splicing fitness was 0.0179.

With GUGCCUUGCGCCGGGAAACCACGCAAGGGAUGGUGUCAAAUUCGGCGAAACCUAAGCGCCCGCCCGGGCGUAUGGCAACGCCGAGCCAAGCUUCGGCGCCUGCGCCGAUGGAGGUGUAGUGACUAGACGGCACCCACCUAAGGCCAACGAUAUGGUGAAGGCAUAGUCCAGGGAGCGGCGAAAGUCACACAAACCGG [A111G A120U A145C C150A U176C] as the variant, how does the reverse-splicing fitness read?
Its reverse-splicing fitness is 0.00924.

Which reverse-splicing fitness does the source give for GUGCCUUGCGCCGGGAAACCACGCAAGGGAUGGUGUCAAAUUCGGCGAAACCUAAGCGCCCGCCCGGGCGUAUGGCAACGCCGAGCCAAGCUUCGGCGCCUGCGCCGAUGGAGGUGUAGUGACUAGACGGCACCCACCUAAGGCCAACGAUAUGGUGAAGGCAUAGUCCAGGGAGGGGCGAAAGUCACACAAACCGG [A111G A120U A145C C150A U176G] here?
Its reverse-splicing fitness is 0.00839.

For GUGCCUUGCGCCGGGAAACCACGCAAGGGAUGGUGUCAAAUUCGGCGAAACCUAAGCGCCCGCCCGGGCGUAUGGCAACGCCGAGCCAAGCUUCGGCGCCUGCGCCGAUGGAGGUGUAGUGACUAGACGGCACCCACCUAAGGCCAACGGUAUGGUGAAGGCAUAGUCCAGGGAGUGGCGAAAGUCACACAAACCGG [A111G A120U A145C C150G], which reverse-splicing fitness is on record?
The reverse-splicing fitness was 0.116.

For GUGCCUUGCGCCGGGAAACCACGCAAGGGAUGGUGUCAAAUUCGGCGAAACCUAAGCGCCCGCCCGGGCGUAUGGCAACGCCGAGCCAAGCUUCGGCGCCUGCGCCGAUGGAGGUGUAGUGACUAGACGGCACCCACCUAAGGCCAACGGUAUGGUGAAGGCAUAGUCAAGGGAGUGGCGAAAGUCACACAAACCGG [A111G A120U A145C C150G C169A], which reverse-splicing fitness is on record?
Its reverse-splicing fitness is 0.00293.

With GUGCCUUGCGCCGGGAAACCACGCAAGGGAUGGUGUCAAAUUCGGCGAAACCUAAGCGCCCGCCCGGGCGUAUGGCAACGCCGAGCCAAGCUUCGGCGCCUGCGCCGAUGGAGGUGUAGUGACUAGACGGCACCCACCUAAGGCCAACGGUAUGGUGAAGGCAUAGUCAAGGGAGAGGCGAAAGUCACACAAACCGG [A111G A120U A145C C150G C169A U176A] as the variant, how does the reverse-splicing fitness read?
Its reverse-splicing fitness is 0.00204.

With GUGCCUUGCGCCGGGAAACCACGCAAGGGAUGGUGUCAAAUUCGGCGAAACCUAAGCGCCCGCCCGGGCGUAUGGCAACGCCGAGCCAAGCUUCGGCGCCUGCGCCGAUGGAGGUGUAGUGACUAGACGGCACCCACCUAAGGCCAACGGUAUGGUGAAGGCAUAGUCAAGGGAGCGGCGAAAGUCACACAAACCGG [A111G A120U A145C C150G C169A U176C] as the variant, how does the reverse-splicing fitness read?
Its reverse-splicing fitness is 0.00245.
